{"source": "patent US12630600B2", "about": "(MEDIMMUNE LIMITED, priority 2022, dated 2026)", "binders": {"B1": {"name": "Peptide 412 (peptide)", "peptide": "H[Aib]QGTFTSDVSK[αMeF]LDTK([AEEA-AEEA-γGlu-C20 diacid])RAQDFVAWLEAGG-OH", "modifications": "N-terminus assumed", "SMILES": "CC(C)C[C@H](NC(=O)[C@H](Cc1c[nH]c2ccccc12)NC(=O)[C@H](C)NC(=O)[C@@H](NC(=O)[C@H](Cc1ccccc1)NC(=O)[C@H](CC(=O)O)NC(=O)[C@H](CCC(N)=O)NC(=O)[C@H](C)NC(=O)[C@H](CCCNC(=N)N)NC(=O)[C@H](CCCCNC(=O)COCCOCCNC(=O)COCCOCCNC(=O)CC[C@H](NC(=O)CCCCCCCCCCCCCCCCCCC(=O)O)C(=O)O)NC(=O)[C@@H](NC(=O)[C@H](CC(=O)O)NC(=O)[C@H](CC(C)C)NC(=O)[C@](C)(Cc1ccccc1)NC(=O)[C@H](CCCCN)NC(=O)[C@H](CO)NC(=O)[C@@H](NC(=O)[C@H](CC(=O)O)NC(=O)[C@H](CO)NC(=O)[C@@H](NC(=O)[C@H](Cc1ccccc1)NC(=O)[C@@H](NC(=O)CNC(=O)[C@H](CCC(N)=O)NC(=O)C(C)(C)NC(=O)[C@@H](N)Cc1c[nH]cn1)[C@@H](C)O)[C@@H](C)O)C(C)C)[C@@H](C)O)C(C)C)C(=O)N[C@@H](CCC(=O)O)C(=O)N[C@@H](C)C(=O)NCC(=O)NCC(=O)O"}, "B2": {"name": "Peptide 413 (peptide)", "peptide": "H[Aib]QGTFTSDVSK[αMeF]LDTK([AEEA-AEEA-γGlu-γGlu-C20 diacid])RAQDFVAWLEAGG-OH"}, "B3": {"name": "Peptide 414 (peptide)", "peptide": "H[Aib]QGTFTSDVSK[αMeF]LDKK([AEEA-AEEA-γGlu-C18 diacid])RARDFVRWLL[Aib]E-OH", "modifications": "N-terminus assumed", "SMILES": "CC(C)C[C@H](NC(=O)[C@H](Cc1c[nH]c2ccccc12)NC(=O)[C@H](CCCNC(=N)N)NC(=O)[C@@H](NC(=O)[C@H](Cc1ccccc1)NC(=O)[C@H](CC(=O)O)NC(=O)[C@H](CCCNC(=N)N)NC(=O)[C@H](C)NC(=O)[C@H](CCCNC(=N)N)NC(=O)[C@H](CCCCNC(=O)COCCOCCNC(=O)COCCOCCNC(=O)CC[C@H](NC(=O)CCCCCCCCCCCCCCCCC(=O)O)C(=O)O)NC(=O)[C@H](CCCCN)NC(=O)[C@H](CC(=O)O)NC(=O)[C@H](CC(C)C)NC(=O)[C@](C)(Cc1ccccc1)NC(=O)[C@H](CCCCN)NC(=O)[C@H](CO)NC(=O)[C@@H](NC(=O)[C@H](CC(=O)O)NC(=O)[C@H](CO)NC(=O)[C@@H](NC(=O)[C@H](Cc1ccccc1)NC(=O)[C@@H](NC(=O)CNC(=O)[C@H](CCC(N)=O)NC(=O)C(C)(C)NC(=O)[C@@H](N)Cc1c[nH]cn1)[C@@H](C)O)[C@@H](C)O)C(C)C)C(C)C)C(=O)N[C@@H](CC(C)C)C(=O)NC(C)(C)C(=O)N[C@@H](CCC(=O)O)C(=O)O"}, "B4": {"name": "Peptide 407 (peptide)", "peptide": "H[Aib]QGTFTSDVSK[αMeF]LDTK([AEEA-AEEA-γGlu-C20 diacid])RAQDFVRWLEA[Aib]G-OH", "modifications": "N-terminus assumed", "SMILES": "CC(C)C[C@H](NC(=O)[C@H](Cc1c[nH]c2ccccc12)NC(=O)[C@H](CCCNC(=N)N)NC(=O)[C@@H](NC(=O)[C@H](Cc1ccccc1)NC(=O)[C@H](CC(=O)O)NC(=O)[C@H](CCC(N)=O)NC(=O)[C@H](C)NC(=O)[C@H](CCCNC(=N)N)NC(=O)[C@H](CCCCNC(=O)COCCOCCNC(=O)COCCOCCNC(=O)CC[C@H](NC(=O)CCCCCCCCCCCCCCCCCCC(=O)O)C(=O)O)NC(=O)[C@@H](NC(=O)[C@H](CC(=O)O)NC(=O)[C@H](CC(C)C)NC(=O)[C@](C)(Cc1ccccc1)NC(=O)[C@H](CCCCN)NC(=O)[C@H](CO)NC(=O)[C@@H](NC(=O)[C@H](CC(=O)O)NC(=O)[C@H](CO)NC(=O)[C@@H](NC(=O)[C@H](Cc1ccccc1)NC(=O)[C@@H](NC(=O)CNC(=O)[C@H](CCC(N)=O)NC(=O)C(C)(C)NC(=O)[C@@H](N)Cc1c[nH]cn1)[C@@H](C)O)[C@@H](C)O)C(C)C)[C@@H](C)O)C(C)C)C(=O)N[C@@H](CCC(=O)O)C(=O)N[C@@H](C)C(=O)NC(C)(C)C(=O)NCC(=O)O"}, "B5": {"name": "Peptide 409 (peptide)", "peptide": "H[Aib]QGTFTSDVSK[αMeF]LDTK([AEEA-AEEA-γGlu-C18 diacid])RARDFVAWLL[Aib]TE-OH", "modifications": "N-terminus assumed", "SMILES": "CC(C)C[C@H](NC(=O)[C@H](Cc1c[nH]c2ccccc12)NC(=O)[C@H](C)NC(=O)[C@@H](NC(=O)[C@H](Cc1ccccc1)NC(=O)[C@H](CC(=O)O)NC(=O)[C@H](CCCNC(=N)N)NC(=O)[C@H](C)NC(=O)[C@H](CCCNC(=N)N)NC(=O)[C@H](CCCCNC(=O)COCCOCCNC(=O)COCCOCCNC(=O)CC[C@H](NC(=O)CCCCCCCCCCCCCCCCC(=O)O)C(=O)O)NC(=O)[C@@H](NC(=O)[C@H](CC(=O)O)NC(=O)[C@H](CC(C)C)NC(=O)[C@](C)(Cc1ccccc1)NC(=O)[C@H](CCCCN)NC(=O)[C@H](CO)NC(=O)[C@@H](NC(=O)[C@H](CC(=O)O)NC(=O)[C@H](CO)NC(=O)[C@@H](NC(=O)[C@H](Cc1ccccc1)NC(=O)[C@@H](NC(=O)CNC(=O)[C@H](CCC(N)=O)NC(=O)C(C)(C)NC(=O)[C@@H](N)Cc1c[nH]cn1)[C@@H](C)O)[C@@H](C)O)C(C)C)[C@@H](C)O)C(C)C)C(=O)N[C@@H](CC(C)C)C(=O)NC(C)(C)C(=O)N[C@H](C(=O)N[C@@H](CCC(=O)O)C(=O)O)[C@@H](C)O"}, "B6": {"name": "Peptide 411 (peptide)", "peptide": "H[Aib]QGTFTSDVSK[αMeF]LDTK([AEEA-AEEA-γGlu-C18 diacid])RAQDFVAWLEAGG-OH", "modifications": "N-terminus assumed", "SMILES": "CC(C)C[C@H](NC(=O)[C@H](Cc1c[nH]c2ccccc12)NC(=O)[C@H](C)NC(=O)[C@@H](NC(=O)[C@H](Cc1ccccc1)NC(=O)[C@H](CC(=O)O)NC(=O)[C@H](CCC(N)=O)NC(=O)[C@H](C)NC(=O)[C@H](CCCNC(=N)N)NC(=O)[C@H](CCCCNC(=O)COCCOCCNC(=O)COCCOCCNC(=O)CC[C@H](NC(=O)CCCCCCCCCCCCCCCCC(=O)O)C(=O)O)NC(=O)[C@@H](NC(=O)[C@H](CC(=O)O)NC(=O)[C@H](CC(C)C)NC(=O)[C@](C)(Cc1ccccc1)NC(=O)[C@H](CCCCN)NC(=O)[C@H](CO)NC(=O)[C@@H](NC(=O)[C@H](CC(=O)O)NC(=O)[C@H](CO)NC(=O)[C@@H](NC(=O)[C@H](Cc1ccccc1)NC(=O)[C@@H](NC(=O)CNC(=O)[C@H](CCC(N)=O)NC(=O)C(C)(C)NC(=O)[C@@H](N)Cc1c[nH]cn1)[C@@H](C)O)[C@@H](C)O)C(C)C)[C@@H](C)O)C(C)C)C(=O)N[C@@H](CCC(=O)O)C(=O)N[C@@H](C)C(=O)NCC(=O)NCC(=O)O"}, "B7": {"name": "Peptide 410 (peptide)", "peptide": "H[Aib]QGTFTSDVSK[αMeF]LDTK([AEEA-AEEA-γGlu-C20 diacid])RARDFVAWLL[Aib]TE-OH", "modifications": "N-terminus assumed", "SMILES": "CC(C)C[C@H](NC(=O)[C@H](Cc1c[nH]c2ccccc12)NC(=O)[C@H](C)NC(=O)[C@@H](NC(=O)[C@H](Cc1ccccc1)NC(=O)[C@H](CC(=O)O)NC(=O)[C@H](CCCNC(=N)N)NC(=O)[C@H](C)NC(=O)[C@H](CCCNC(=N)N)NC(=O)[C@H](CCCCNC(=O)COCCOCCNC(=O)COCCOCCNC(=O)CC[C@H](NC(=O)CCCCCCCCCCCCCCCCCCC(=O)O)C(=O)O)NC(=O)[C@@H](NC(=O)[C@H](CC(=O)O)NC(=O)[C@H](CC(C)C)NC(=O)[C@](C)(Cc1ccccc1)NC(=O)[C@H](CCCCN)NC(=O)[C@H](CO)NC(=O)[C@@H](NC(=O)[C@H](CC(=O)O)NC(=O)[C@H](CO)NC(=O)[C@@H](NC(=O)[C@H](Cc1ccccc1)NC(=O)[C@@H](NC(=O)CNC(=O)[C@H](CCC(N)=O)NC(=O)C(C)(C)NC(=O)[C@@H](N)Cc1c[nH]cn1)[C@@H](C)O)[C@@H](C)O)C(C)C)[C@@H](C)O)C(C)C)C(=O)N[C@@H](CC(C)C)C(=O)NC(C)(C)C(=O)N[C@H](C(=O)N[C@@H](CCC(=O)O)C(=O)O)[C@@H](C)O"}, "B8": {"name": "Peptide 408 (peptide)", "peptide": "H[Aib]QGTFTSDVSK[αMeF]LDTK([AEEA-AEEA-γGlu-γGlu-C20 diacid])RAQDFVRWLEA[Aib]G-OH", "modifications": "N-terminus assumed", "SMILES": "CC(C)C[C@H](NC(=O)[C@H](Cc1c[nH]c2ccccc12)NC(=O)[C@H](CCCNC(=N)N)NC(=O)[C@@H](NC(=O)[C@H](Cc1ccccc1)NC(=O)[C@H](CC(=O)O)NC(=O)[C@H](CCC(N)=O)NC(=O)[C@H](C)NC(=O)[C@H](CCCNC(=N)N)NC(=O)[C@H](CCCCNC(=O)COCCOCCNC(=O)COCCOCCNC(=O)CC[C@H](NC(=O)CC[C@H](NC(=O)CCCCCCCCCCCCCCCCCCC(=O)O)C(=O)O)C(=O)O)NC(=O)[C@@H](NC(=O)[C@H](CC(=O)O)NC(=O)[C@H](CC(C)C)NC(=O)[C@](C)(Cc1ccccc1)NC(=O)[C@H](CCCCN)NC(=O)[C@H](CO)NC(=O)[C@@H](NC(=O)[C@H](CC(=O)O)NC(=O)[C@H](CO)NC(=O)[C@@H](NC(=O)[C@H](Cc1ccccc1)NC(=O)[C@@H](NC(=O)CNC(=O)[C@H](CCC(N)=O)NC(=O)C(C)(C)NC(=O)[C@@H](N)Cc1c[nH]cn1)[C@@H](C)O)[C@@H](C)O)C(C)C)[C@@H](C)O)C(C)C)C(=O)N[C@@H](CCC(=O)O)C(=O)N[C@@H](C)C(=O)NC(C)(C)C(=O)NCC(=O)O"}}, "note": "Starred links: 1 amine or outer side, 2 acyl side, 3 side chain; linkers in the order of their positions; H or OH if unused. Non-standard residues stand in square brackets, D forms with d. Groups on a side chain read outwards from the residue. No end group written: not given here. *: point of attachment. C20 diacid = O=C(O)CCCCCCCCCCCCCCCCCCC(=O)*; C18 diacid = O=C(O)CCCCCCCCCCCCCCCCC(=O)*; γGlu = O=C(O)[C@H](CCC(=O)[*:2])N[*:1]; αMeF = C[C@](N)(Cc1ccccc1)C(=O)O; AEEA = NCCOCCOCC(=O)O; Aib = CC(C)(N)C(=O)O", "data": [{"target": "human glucagon receptor (human, UniProt P47871)", "assay": "cell-based or functional assay", "units": {"cAMP production EC50": "nM"}, "values": [{"binder": "B1", "cAMP production EC50": 0.397}, {"binder": "B2", "cAMP production EC50": 1.02}, {"binder": "B3", "cAMP production EC50": 0.0269}, {"binder": "B4", "cAMP production EC50": 0.462}, {"binder": "B5", "cAMP production EC50": 0.203}, {"binder": "B6", "cAMP production EC50": 0.378}, {"binder": "B7", "cAMP production EC50": 0.455}, {"binder": "B8", "cAMP production EC50": 0.828}]}, {"target": "human GLP-1 receptor (human, UniProt P43220)", "assay": "cell-based or functional assay", "units": {"cAMP production EC50": "nM"}, "values": [{"binder": "B1", "cAMP production EC50": 0.186}, {"binder": "B2", "cAMP production EC50": 0.406}, {"binder": "B3", "cAMP production EC50": 0.0323}, {"binder": "B4", "cAMP production EC50": 0.209}, {"binder": "B5", "cAMP production EC50": 0.0227}, {"binder": "B6", "cAMP production EC50": 0.0981}, {"binder": "B7", "cAMP production EC50": 0.078}, {"binder": "B8", "cAMP production EC50": 0.37}]}]}
